Drawing on publication PMC5453243, this text covers Vmax and Km for 2 proteins.

Substrate in the data set: CCn1c(=NN=c2sc3cc(S(=O)(=O)O)ccc3n2CC)sc2cc(S(=O)(=O)O)ccc21
The experiment in a line: purified protein. Conditions: 1 mM H2O2, 50 mM KH2PO4 pH 6.5, 30 °C.

B1: soluble HRP P. pastoris (Armoracia rusticana) (protein)
chain: QLTPTFYDNSCPNVSNIVRDTIVNELRSDPRIAASILRLHFHDCFVNGCDASILLDNTTSFRTEKDAFGNANSARGFPVIDRMKAAVESACPRTVSCADLLTIAAQQSVTLAGGPSWRVPLGRRDSLQAFLDLANANLPAPFFTLPQLKDSFRNVGLNRSSDLVALSGGHTFGKNQCRFIMDRLYNFSNTGLPDPTLNTTYLQTLRGLCPLNGNLSALVDFDLRTPTIFDNKYYVNLEEQKGLIQSDQELFSSPNATDTIPLVRSFANSTQTFFNAFVEAMDRMGNITPLTGTQGQIRLNCRVVNSNS
For orientation: Vmax means the top rate of the reaction or transport when substrate is in excess. Regarding B1, the Vmax is 152 µmol/min/mg.

B2: refolded HRP E. coli (HRP C1A refolded from inclusion bodies) (Armoracia rusticana) (protein)
chain: B1 chain
As usually defined, the Km is the concentration of substrate that gives half-maximal velocity. Turning to B2, for the setting “ABTS 0.005–10 mM”, the Michaelis-Menten constant (Km) stood at 1.25 ± 0.10 mM and the Vmax is 62.5 µmol/min/mg.
